# Patent US6124449, “High affinity TGFβ nucleic acid ligands and inhibitors” (NeXstar Pharmaceuticals, Inc.)
# B1: 40-41 (ssRNA)
# RNA: GGGAGGACGAUGCGGUGCCUUUAGCCUGAGUAUACUGAUGUAUAUUCUCUGCCGCAGACGACUCGCCCGA
# modifications: 2'-F C and U
# B2: 40-11 (ssRNA)
# RNA: GGGAGGACGAUGCGGUGCCUUUAGUCUGAAUCUUCUACCAUGAUUCUCUGCCGCAGACGACUCGCCCGA
# modifications: 2'-F C and U
# B3: 40-03 (ssRNA)
# RNA: GGGAGGACGAUGCGGGGGUUAUUGGGCGUCAACAUCCCCGAUUCUUUUCACGUCCAGACGACUCGCCCGA
# modifications: 2'-F C and U
# B4: 30-25 (ssRNA)
# RNA: GGGAGGACGAUGCGGUUGGCAUUGAAAGAGGCGUCAUAUGUUCGCCAGACGACUCGCCCGA
# modifications: 2'-F C and U
# B5: 30-16,27,38,46 (ssRNA)
# RNA: GGGAGGACGAUGCGGUGCCUUUAGCUUAGGCAUUGCCUUCUGCCGCAGACGACUCGCCCGA
# modifications: 2'-F C and U
# B6: 30-39 (ssRNA)
# RNA: GGGAGGACGAUGCGGUGUCUUUAGCUUAGGUGAUUCCUUCUGCCGCAGACGACUCGCCCGA
# modifications: 2'-F C and U
# B7: 30-17 (ssRNA)
# RNA: GGGAGGACGAUGCGGUGCCUUUAGCUUAGGCUUUGCCUUCUGCCGCAGACGACUCGCCCGA
# modifications: 2'-F C and U
# B8: 30-35 (ssRNA)
# RNA: GGGAGGACGAUGCGGUGUCUUUAGCCUAGGUGAUUCCUUCUGCCUCAGACGACUCGCCCGA
# modifications: 2'-F C and U
# B9: 40-24 (ssRNA)
# RNA: GGGAGGACGAUGCGGUUAUGGGCGUCAACACCGCUAUUACAACUUUCGCUUUCCCAGACGACUCGCCCGA
# modifications: 2'-F C and U
# B10: 40-28 (ssRNA)
# RNA: GGGAGGACGAUGCGGUUAGGGGCGUCAACACCGCUAUUACAACUUUCGCCUCACCAGACGACUCGCCCGA
# modifications: 2'-F C and U
# B11: 40-26 (ssRNA)
# RNA: GGGAGGACGAUGCGGUUAGGGGCGUCAACAUCGCUAUUACAAUCUUCGCCUUCCCAGACGACUCGCCCGA
# modifications: 2'-F C and U
# B12: 40-22,35 (ssRNA)
# RNA: GGGAGGACGAUGCGGUUAGGGGCGUCAACACCGCUAUUACAAUUUUCGCUUCCCAGACGACUCGCCCGA
# modifications: 2'-F C and U
# B13: 40-23 (ssRNA)
# RNA: GGGAGGACGAUGCGGUUAGGGGCGUCAACACCGCUAUUACAAUCUUCGCUUCCCAGACGACUCGCCCGA
# modifications: 2'-F C and U
# B14: 40-04 (ssRNA)
# RNA: GGGAGGACGAUGCGGAUGCCUUUUGCCUUCAGGGUGUAAUUCCUUGAUCUGUCCGCAGACGACUCGCCCGA
# modifications: 2'-F C and U
# B15: 40-39 (ssRNA)
# RNA: GGGAGGACGAUGCGGUGCCUUUAGCCUAAGUUGAUCUAUUCAGCUUUCUGCCGCAGACGACUCGCCCGA
# modifications: 2'-F C and U
# Experiments:
# [1] = target: T1, TGF-beta1 (hTGF-beta1) (Homo sapiens, UniProt P01137 P01137:279-390); test: filter; biphasic; Kd1 3.8±0.9 nM; settings: tags: R&D Systems; biotinylated form (NFTG0) used for BIAcore; chain copies: 2
# [2] = target: T1, TGF-beta1 (hTGF-beta1); test: filter; biphasic; Kd1 4.6±0.7 nM; settings: tags: R&D Systems; biotinylated form (NFTG0) used for BIAcore; chain copies: 2
# [3] = target: T1, TGF-beta1 (hTGF-beta1); test: cell_activity; MLEC growth suppression reversal; settings: tags: R&D Systems; biotinylated form (NFTG0) used for BIAcore; chain copies: 2; label: 5'-biotin for BIAcore specificity; proposed double pseudoknot
# Procedure: Cells were plated at 10^5/mL in 96-well plates in MEM, 10 mM HEPES and 0.2% FBS. Following 4 hours of incubation at 37° C., when cells appeared to attach to the well surface, TGFβ1 was added at 2 pM with or without TGFβ1 ligands that ranged from 0.1 nM to 1 µM. In a second assay performed in order to determine cross-species reactivity, rather than using hTGFβ, a conditioned serum-free medium (CM) was used. CM was conditioned by culturing it in murine 3T3 fibroblast for 48 hours. Before use, this conditioned medium was heat treated at 80° C. for 10 minutes to activate the 3T3 cell derived TGFβ and then it was diluted to 50% and supplemented with 0.2% murine serum. In each assay, hTGFβ1 (or CM) was diluted appropriately in MEM and FBS (0.2% or murine serum) and the ligands were diluted in MEM. TGFβ1 (or CM) and ligand dilutions at 10× the final concentration were premixed at equal volumes and then were added to the cells. […] After incubation, the cells were washed and harvested with SKATRON filtering units and ^3H-thymidine incorporation in cellular DNA was quantitated by scintillation counting in Ecoscint. Data were plotted and analyzed as described in Park et al. (1990) J. Exp. Med. 171:1073) and Dower et al. (1984) J. Immunol.
# [4] = target: T1, TGF-beta1 (hTGF-beta1); test: filter; biphasic; Kd1 23±6.4 nM; labelled 30-35 in Table 4 class 7 but sequence is 30-25; settings: tags: R&D Systems; biotinylated form (NFTG0) used for BIAcore; chain copies: 2
# [5] = target: T1, TGF-beta1 (hTGF-beta1); test: filter; biphasic; Kd1 71.8 nM; P2 4.3%; settings: tags: R&D Systems; biotinylated form (NFTG0) used for BIAcore; chain copies: 2
# [6] = target: T1, TGF-beta1 (hTGF-beta1); test: filter; biphasic; Kd1 6.02±1.5 nM; settings: tags: R&D Systems; biotinylated form (NFTG0) used for BIAcore; chain copies: 2
# [7] = target: T1, TGF-beta1 (hTGF-beta1); test: filter; biphasic; Kd1 67 nM; P2 4.3%; settings: tags: R&D Systems; biotinylated form (NFTG0) used for BIAcore; chain copies: 2
# [8] = target: T1, TGF-beta1 (hTGF-beta1); test: filter; biphasic; Kd1 20.7±13.8 nM; settings: tags: R&D Systems; biotinylated form (NFTG0) used for BIAcore; chain copies: 2
# [9] = target: T1, TGF-beta1 (hTGF-beta1); test: filter; biphasic; Kd1 12.7±4.7 nM; settings: tags: R&D Systems; biotinylated form (NFTG0) used for BIAcore; chain copies: 2
# [10] = target: T1, TGF-beta1 (hTGF-beta1); test: filter; biphasic; Kd1 12.3±2.4 nM; settings: tags: R&D Systems; biotinylated form (NFTG0) used for BIAcore; chain copies: 2
# [11] = target: T1, TGF-beta1 (hTGF-beta1); test: filter; biphasic; Kd1 7.7±1.6 nM; settings: tags: R&D Systems; biotinylated form (NFTG0) used for BIAcore; chain copies: 2
# [12] = target: T1, TGF-beta1 (hTGF-beta1); test: filter; biphasic; Kd1 13.9±4.3 nM; settings: tags: R&D Systems; biotinylated form (NFTG0) used for BIAcore; chain copies: 2
# [13] = target: T1, TGF-beta1 (hTGF-beta1); test: cell_activity; MLEC assay; settings: tags: R&D Systems; biotinylated form (NFTG0) used for BIAcore; chain copies: 2
# Procedure: Cells were plated at 10^5/mL in 96-well plates in MEM, 10 mM HEPES and 0.2% FBS. Following 4 hours of incubation at 37° C., when cells appeared to attach to the well surface, TGFβ1 was added at 2 pM with or without TGFβ1 ligands that ranged from 0.1 nM to 1 µM. In a second assay performed in order to determine cross-species reactivity, rather than using hTGFβ, a conditioned serum-free medium (CM) was used. CM was conditioned by culturing it in murine 3T3 fibroblast for 48 hours. Before use, this conditioned medium was heat treated at 80° C. for 10 minutes to activate the 3T3 cell derived TGFβ and then it was diluted to 50% and supplemented with 0.2% murine serum. In each assay, hTGFβ1 (or CM) was diluted appropriately in MEM and FBS (0.2% or murine serum) and the ligands were diluted in MEM. TGFβ1 (or CM) and ligand dilutions at 10× the final concentration were premixed at equal volumes and then were added to the cells. Following addition of the TGFβ1 (or CM)-ligand mixture, the cells were incubated for 16–18 hours prior to addition of ^3H-thymidine at 0.25 µCi per well and continued incubation for 7–8 additional hours. After incubation, the cells were washed and harvested with SKATRON filtering units and ^3H-thymidine incorporation in cellular DNA was quantitated by scintillation counting in Ecoscint. Data were plotted and analyzed as described in Park et al. (1990) J. Exp. Med. 171:1073) and Dower et al. (1984) J. Immunol.
# [14] = target: T1, TGF-beta1 (hTGF-beta1); test: filter; biphasic; Kd1 14.2±4.5 nM; settings: tags: R&D Systems; biotinylated form (NFTG0) used for BIAcore; chain copies: 2
# [15] = target: T1, TGF-beta1 (hTGF-beta1); test: filter; biphasic; Kd1 5.0±0.6 nM; settings: tags: R&D Systems; biotinylated form (NFTG0) used for BIAcore; chain copies: 2
# [16] = target: T1, TGF-beta1 (hTGF-beta1); test: filter; biphasic; Kd1 11.5±2.0 nM; settings: tags: R&D Systems; biotinylated form (NFTG0) used for BIAcore; chain copies: 2
# T1 sequence (P01137 279-390, one chain of several): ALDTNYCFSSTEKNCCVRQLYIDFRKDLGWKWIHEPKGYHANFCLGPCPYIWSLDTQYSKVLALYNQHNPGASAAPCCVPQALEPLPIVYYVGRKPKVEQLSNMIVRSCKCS
binder,measurement,setting,value
B1,Kd,[1],0.0014 nM
B2,Kd,[2],0.0049 nM
B3,Ki,[3],0.4 nM
B4,Kd,[4],0.00114 nM
B5,Kd,[5],0.211 nM
B6,Kd,[6],0.0325 nM
B7,Kd,[7],0.205 nM
B8,Kd,[8],0.224 nM
B9,Kd,[9],0.0275 nM
B10,Kd,[10],0.0816 nM
B11,Kd,[11],0.0408 nM
B12,Kd,[12],0.0176 nM
B13,Ki,[13],0.75 nM
same,Kd,[14],0.0156 nM
B14,Kd,[15],0.0014 nM
B15,Kd,[16],0.00878 nM
